# Data as given in paper PMC8752778, “The RNA methyltransferase METTL8 installs m3C32 in mitochondrial tRNAsThr/Ser(UCN) to optimise tRNA structure and mitochondrial translation”.
# T1: His14-MBP-METTL8 (Homo sapiens, UniProt B3KW44 1-407)
# T1 sequence: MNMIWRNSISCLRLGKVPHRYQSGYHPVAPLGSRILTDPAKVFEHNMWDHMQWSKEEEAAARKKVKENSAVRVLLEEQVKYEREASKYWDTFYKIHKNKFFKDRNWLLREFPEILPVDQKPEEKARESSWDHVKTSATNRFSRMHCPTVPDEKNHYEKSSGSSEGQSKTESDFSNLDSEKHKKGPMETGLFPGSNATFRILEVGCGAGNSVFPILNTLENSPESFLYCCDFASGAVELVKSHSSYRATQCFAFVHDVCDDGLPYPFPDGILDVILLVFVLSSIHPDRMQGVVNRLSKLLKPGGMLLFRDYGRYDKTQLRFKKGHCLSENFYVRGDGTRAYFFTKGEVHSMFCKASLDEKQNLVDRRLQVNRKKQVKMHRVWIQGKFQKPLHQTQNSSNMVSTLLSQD
# Tests used:
# [1] = molecular target: T1, His14-MBP-METTL8; assay: fluorescence anisotropy; 30 mM phosphate pH 7.3, 200 mM KCl, 20 nM labelled oligonucleotide, 0-2 uM protein, 5 min at room temperature, measured at 22 C; conditions: protein: recombinant; tags: N-terminal His14-MBP; label: fluorescein (5' click per Methods); hairpin
# [2] = molecular target: T1, His14-MBP-METTL8; assay: fluorescence anisotropy; affinity similar to ASLs; Kd only in figure; 30 mM phosphate pH 7.3, 200 mM KCl, 20 nM labelled oligonucleotide, 0-2 uM protein, 5 min at room temperature, measured at 22 C; conditions: protein: recombinant; tags: N-terminal His14-MBP; label: fluorescein (5' click per Methods); single strand
# [3] = molecular target: T1, His14-MBP-METTL8; assay: fluorescence anisotropy; up to 2 uM protein; 30 mM phosphate pH 7.3, 200 mM KCl, 20 nM labelled oligonucleotide, 0-2 uM protein, 5 min at room temperature, measured at 22 C; conditions: protein: recombinant; tags: N-terminal His14-MBP; label: 5' fluorescein
# [4] = molecular target: T1, His14-MBP-METTL8; assay: fluorescence anisotropy; high affinity; lower than i6A37 ASL; Kd only in figure; 30 mM phosphate pH 7.3, 200 mM KCl, 20 nM labelled oligonucleotide, 0-2 uM protein, 5 min at room temperature, measured at 22 C; conditions: protein: recombinant; tags: N-terminal His14-MBP; label: fluorescein (5' hexynyl/6FAM azide click); hairpin
# [5] = molecular target: T1, His14-MBP-METTL8; assay: fluorescence anisotropy; high affinity; Kd only in figure; 30 mM phosphate pH 7.3, 200 mM KCl, 20 nM labelled oligonucleotide, 0-2 uM protein, 5 min at room temperature, measured at 22 C; conditions: protein: recombinant; tags: N-terminal His14-MBP; label: fluorescein (5' click per Methods); hairpin
# [6] = molecular target: T1, His14-MBP-METTL8; assay: fluorescence anisotropy; 30 mM phosphate pH 7.3, 200 mM KCl, 20 nM labelled oligonucleotide, 0-2 uM protein, 5 min at room temperature, measured at 22 C; conditions: protein: recombinant; tags: N-terminal His14-MBP; label: 5' fluorescein; hairpin
binder,measurement,setting,value
"GUUGGCUUGAAACCAGCU (structured_RNA, m3C at strand position 6 (C32); i6A at strand position 11 (A37)) [mt-tRNASer(UCN) m3C32 i6A37 ASL]",binding signal,[1],~2.5 fold weaker than i6A37 ASL (N6)
GACAUACUGACCCUUCAAAUA (ssRNA) [Unstructured RNA 2],binding result,[2],binds
GATGTGCAGCTGCACATC (ssDNA) [DNA oligonucleotide],binding result,[3],no binding
GUUGGCUUGAAACCAGCU (structured_RNA) [mt-tRNASer(UCN) ASL unmodified],binding result,[4],binds
GUAAAAGUCGUAACAAAGGU (ssRNA) [Unstructured RNA R420],binding result,[2],binds
UCGGGCCCAUACCCCGA (structured_RNA) [mt-tRNAMet ASL],binding result,[5],binds
"GUUGGCUUGAAACCAGCU (structured_RNA, i6A at strand position 11 (A37)) [mt-tRNASer(UCN) i6A37 ASL]",Kd,[6],200 nM
